From patent US20170210813A1 come the findings set out here.

In assay [1] the target is hPDGFRb.mmh (human) (UniProt P09619). Put plainly: Octet BLI cross-competition, 25 C; hPDGFRb.mmh on anti-Penta-His tips pre-saturated with mAb-1 H4H3305N (row 8). (In general: BLI is a label-free optical method that tracks binding on a fibre tip over time.)
For assay [2] the target is unchanged. The assay is described as follows: Octet BLI cross-competition, 25 C; hPDGFRb.mmh on anti-Penta-His tips pre-saturated with mAb-1 H4H3310N (row 9).
The target is the same in assay [3]. The assay is described as follows: blocking ELISA, biot-hPDGFRb.mmh to coated PDGF-BB; average of three experiments. Background: ELISA stands for enzyme-linked immunosorbent assay.
For assay [4] the target is unchanged. Put plainly: Octet BLI cross-competition, 25 C; hPDGFRb.mmh on anti-Penta-His tips pre-saturated with mAb-1 H4H3107S (row 7).
Assay [5] deals with Macaca fascicularis PDGFRb.mmh (Macaca fascicularis). The assay is described as follows: SPR, mAb captured, 37 C. Background: SPR reads the build-up and loss of mass on a sensor chip optically.
Chain of Macaca fascicularis PDGFRb.mmh (Macaca fascicularis) (chain, as listed by the source): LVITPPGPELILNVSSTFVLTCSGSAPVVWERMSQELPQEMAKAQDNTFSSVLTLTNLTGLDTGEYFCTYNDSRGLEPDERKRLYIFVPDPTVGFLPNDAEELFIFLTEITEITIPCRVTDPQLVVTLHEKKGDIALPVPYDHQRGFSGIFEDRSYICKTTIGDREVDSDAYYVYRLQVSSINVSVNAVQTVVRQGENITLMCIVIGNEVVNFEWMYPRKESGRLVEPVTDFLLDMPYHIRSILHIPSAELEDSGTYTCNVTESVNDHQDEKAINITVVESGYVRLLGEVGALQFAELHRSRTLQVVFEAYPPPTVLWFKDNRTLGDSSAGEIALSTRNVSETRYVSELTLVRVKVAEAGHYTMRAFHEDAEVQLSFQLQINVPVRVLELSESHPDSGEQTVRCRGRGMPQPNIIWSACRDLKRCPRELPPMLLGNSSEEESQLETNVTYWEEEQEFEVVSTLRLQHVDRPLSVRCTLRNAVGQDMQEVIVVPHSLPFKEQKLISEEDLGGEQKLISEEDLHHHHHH
The target of assay [6] is human PDGFRb.hFc (human). Put plainly: SPR, mAb captured, 37 C.
Assay [7] has as its target hPDGFRb.mmh (human) (UniProt P09619). Put plainly: SPR, mAb captured, 37 C.
Assay [8] deals with full length human PDGFR-beta on HEK293 cells (human) (UniProt P09619). The assay is described as follows: cell-based or functional assay.
Chain of full length human PDGFR-beta on HEK293 cells (human) (P09619 33-1106 limits assumed): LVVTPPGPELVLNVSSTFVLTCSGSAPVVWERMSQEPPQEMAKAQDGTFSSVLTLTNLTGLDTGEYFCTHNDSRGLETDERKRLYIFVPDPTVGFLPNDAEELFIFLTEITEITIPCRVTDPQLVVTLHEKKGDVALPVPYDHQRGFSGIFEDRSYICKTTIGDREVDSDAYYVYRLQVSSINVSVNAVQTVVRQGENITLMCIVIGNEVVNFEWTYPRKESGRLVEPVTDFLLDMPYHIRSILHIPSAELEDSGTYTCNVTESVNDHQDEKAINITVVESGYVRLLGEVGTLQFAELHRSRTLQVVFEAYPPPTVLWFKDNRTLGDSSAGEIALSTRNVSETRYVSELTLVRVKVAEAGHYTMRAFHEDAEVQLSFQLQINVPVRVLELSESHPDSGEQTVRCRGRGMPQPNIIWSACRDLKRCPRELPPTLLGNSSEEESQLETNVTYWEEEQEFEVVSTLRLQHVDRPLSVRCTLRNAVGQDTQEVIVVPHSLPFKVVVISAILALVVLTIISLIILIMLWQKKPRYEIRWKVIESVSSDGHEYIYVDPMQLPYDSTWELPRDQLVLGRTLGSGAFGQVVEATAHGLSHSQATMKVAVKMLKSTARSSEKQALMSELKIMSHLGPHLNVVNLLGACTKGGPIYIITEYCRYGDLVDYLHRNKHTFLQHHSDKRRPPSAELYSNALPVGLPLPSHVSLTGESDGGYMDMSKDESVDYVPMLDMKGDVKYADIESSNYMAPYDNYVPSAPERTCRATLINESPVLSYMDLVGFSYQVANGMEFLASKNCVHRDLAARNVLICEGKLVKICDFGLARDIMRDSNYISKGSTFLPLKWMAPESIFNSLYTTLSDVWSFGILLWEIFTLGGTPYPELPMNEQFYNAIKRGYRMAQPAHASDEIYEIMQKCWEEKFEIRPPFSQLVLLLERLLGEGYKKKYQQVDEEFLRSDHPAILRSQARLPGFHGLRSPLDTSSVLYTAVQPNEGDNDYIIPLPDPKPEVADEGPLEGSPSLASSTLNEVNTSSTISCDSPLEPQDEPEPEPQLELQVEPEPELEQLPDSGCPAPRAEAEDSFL
In assay [9] the target is hPDGFRb.mmh (human) (UniProt P09619). Put plainly: Octet BLI cross-competition, 25 C; hPDGFRb.mmh on anti-Penta-His tips pre-saturated with mAb-1 Control I (row 1); self-competition.
For assay [10] the target is unchanged. The assay is described as follows: blocking ELISA, biot-hPDGFRb.mmh to coated PDGF-BB.
Assay [11] has as its target Macaca fascicularis PDGFRb.mmh (Macaca fascicularis). The assay is described as follows: SPR, mAb captured, 25 C.
Assay [12] deals with human PDGFRb.hFc (human). Put plainly: SPR, mAb captured, 25 C.
The target in assay [13] is hPDGFRb.mmh (human) (UniProt P09619). The assay is described as follows: SPR, mAb captured, 25 C.
Assay [14] has the same target. The assay is described as follows: Octet BLI cross-competition, 25 C; hPDGFRb.mmh on anti-Penta-His tips pre-saturated with mAb-1 H4H3099S (row 6).

A word on the IC50: it is the concentration that inhibits the measured activity by half. Usually Kd stands for the constant that tells how readily two partners part at equilibrium. A word on the koff: it is the rate constant with which the complex falls apart. Read a high koff as fast dissociation. Usually kon stands for the second-order rate constant of association.

Chain of hPDGFRb.mmh (human) (P09619 other isoform, or with tags, fused parts or gaps): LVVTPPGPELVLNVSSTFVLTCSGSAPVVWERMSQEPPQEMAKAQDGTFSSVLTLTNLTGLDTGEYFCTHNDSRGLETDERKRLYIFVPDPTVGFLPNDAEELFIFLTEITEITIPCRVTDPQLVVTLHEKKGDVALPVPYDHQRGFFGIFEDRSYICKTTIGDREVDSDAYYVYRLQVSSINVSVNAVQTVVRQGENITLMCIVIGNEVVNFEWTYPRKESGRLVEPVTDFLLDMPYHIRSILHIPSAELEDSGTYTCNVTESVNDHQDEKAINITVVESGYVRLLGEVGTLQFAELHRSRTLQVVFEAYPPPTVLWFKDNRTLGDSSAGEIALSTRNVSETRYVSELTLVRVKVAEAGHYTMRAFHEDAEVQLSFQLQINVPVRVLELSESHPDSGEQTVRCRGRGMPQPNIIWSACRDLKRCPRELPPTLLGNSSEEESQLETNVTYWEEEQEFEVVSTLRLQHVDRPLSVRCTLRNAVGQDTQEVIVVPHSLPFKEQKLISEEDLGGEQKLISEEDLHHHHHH
Chain of Control I (antibody) (VH): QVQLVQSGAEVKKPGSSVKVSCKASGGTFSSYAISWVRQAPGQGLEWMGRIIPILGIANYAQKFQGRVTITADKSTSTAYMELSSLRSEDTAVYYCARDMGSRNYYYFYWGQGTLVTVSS
Chain of Control I (antibody) (VL): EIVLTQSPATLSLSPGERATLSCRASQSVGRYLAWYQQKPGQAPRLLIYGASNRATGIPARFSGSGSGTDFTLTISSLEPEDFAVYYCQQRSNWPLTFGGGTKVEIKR

For Control I (antibody), the Response of mAb-2 Binding to hPDGFRβ.mmh Pre-Complexed with mAb-1 (nm) in [1] is 0.34 nm; in assay [2], 0.33 nm; in assay [4], 0.32 nm; in [9], 0.05 nm; in [14] it was 0.34 nm. The substance also came in with an IC50 in [3] of 0.34 nM. Also, the Kd turned out to be 20.1 nM in assay [5]; 0.27 nM in assay [6]; 32.5 nM in assay [7]; 8.06 nM in [11]; 0.278 nM in assay [12]; 12.6 nM in [13]. Further, the koff in [5] is 0.00982 s⁻¹; in assay [6], 0.000217 s⁻¹; in [7], 0.0146 s⁻¹; in [11], 0.00243 s⁻¹; in assay [12], 0.00015 s⁻¹; in [13], 0.00349 s⁻¹. For the same substance, the kon is 489000 M⁻¹ s⁻¹ in [5]; 804000 M⁻¹ s⁻¹ in [6]; 450000 M⁻¹ s⁻¹ in assay [7]; 302000 M⁻¹ s⁻¹ in assay [11]; 539000 M⁻¹ s⁻¹ in assay [12]; 277000 M⁻¹ s⁻¹ in assay [13]. Besides, the t1/2 in assay [5] stood at 1.2 min; in [6], 53 min; in [7], 0.8 min; in assay [11] it was 5 min; in assay [12], 77 min; in assay [13], 3 min. In [8], the IC50, blocking PDGF-BB (250 pM) activation, SRE-luciferase was 1.8e-10 M. This substance also showed an IC50, blocking PDGF-DD (400 pM) activation, SRE-luciferase in assay [8] of 1.8e-10 M. The Percent Internalization (Relative to Control I) in assay [8] is 100%. The substance also registered a % Maximum Blocking in assay [10] of 92%.

Isotype Ctrl (antibody): the Percent Internalization (Relative to Control I) in [8] came to 4%.
